Values belong to the molecule of their own block, whether it stands above or below them.
Columns and labels:
human KCNK9 = target: T1, human KCNK9 (Homo sapiens, UniProt Q9NPC2); experiment: Flow cytometry binding to KCNK9-expressing HEK293 cells; settings: for Binding affinity to human KCNK9 relative to parental murine monoclonal antibody: PE conjugate secondary antibody (FIG. 1B)
T1 construct: expressed in transfected cells; host or cells: HEK293 cells, stably transfected, tetracycline-inducible promoter
Description: An anti-KCNK9 mouse monoclonal antibody having a VH amino acid sequence of SEQ ID NO: 1 and a VL amino acid sequence of SEQ ID NO: 2 (mu-mAb) was humanized using a method based on Queen et al., Proc. Natl. Acad. Sci. USA, 86: 10029-10033 (1989). The hybridoma antibody was sequenced after amplifying the antibody variable regions by RT-PCR with degenerate primers. The variable regions were fused with the human antibody IgG1 constant regions to produce a chimeric antibody. Antigen binding of the chimeric antibody was confirmed by staining of the KCNK9-expressing cells. HEK293 cells were stably transfected with KCNK9 expression vector under the tetracycline inducible promoter. After induction, the cells were incubated with various concentrations of chimeric KCNK9 antibody for 30 minutes, followed by secondary anti-human Fc FITC conjugate. Chimeric antibody binding was analyzed by flow cytometry. High affinity binding was confirmed with an EC50 of about 0.3 μg/mL (FIG. 1A).
After antibody sequence analysis and structure modeling, the murine antibody CDRs (SEQ ID NOs: 3-8) were grafted into human antibody VK3-11 and VH1-3 frameworks. Critical murine antibody framework residues that support CDR conformation were identified and introduced into the human frameworks. Five variants of the humanized VH sequences (VH1-5; SEQ ID NOs: 9-13) and three variants of the humanized VL variants (VL1-3; SEQ ID NOs: 14-16) were designed and synthesized. All of the variable regions were cloned into a human IgG1 expression vector. The VHs and VLs were cross-matched to generate 15 humanized KCNK9 antibody clones. All humanized antibodies were produced by transient transfection in 293 cells and purified by Protein A chromatography. Antigen binding of the humanized KCNK9 antibodies was characterized by immunofluorescence staining of KCNK9-expressing cells.

[1] = system: BEN lung carcinoma xenografts; experiment: Pre-established BEN lung carcinoma xenografts in nude mice; type: in vivo; settings: 4 mg/kg b.w. twice per week, established tumors, p<0.01 (FIGS. 6A-6D)
Method: Equal numbers of viable BEN cells (4×10^6 cells) were implanted into the flanks of nude mice. Humanized anti-KCNK9 monoclonal antibodies AF-H4L3, AF-H5L2, or control human IgG (4 mg/kg b.w.) were administered twice per week after tumor xenografts were established and palpable. Tumor volumes were then monitored during treatments using caliper measurements every alternate day (N=10 for each group).

[2] = system: KCNK9-expressing BEN lung carcinoma cells; experiment: Cell growth and viability assays (cell numbers, MTT, trypan blue exclusion); type: cell-based, human; settings: 0.4 mg/mL (FIGS. 4A-4C)
Method: The cytotoxic effect of the AF-H4L3 and AF-H5L2 monoclonal antibodies was tested on KCNK9-expressing BEN lung carcinoma cells. Equal numbers of viable BEN cells were treated with AF-H4L3, AF-H5L2, or human IgG control (0.4 mg/mL). Cells were collected at indicated days after treatment for cell growth and viability assays.

[3] = system: KCNK9-negative MDA-MB-231 cells; experiment: Cell viability, KCNK9-negative cells; type: cell-based, human; settings: MDA-MB-231, KCNK9-negative (FIG. 5)
[4] = system: Human LX22 PDX-derived lung carcinoma cells; experiment: MTT cell viability in combination with PARP or CDK4/6 inhibitor; type: cell-based; settings: 72 hours
Method: Inhibitors of poly-ADP ribose polymerase (PARP) and cyclin dependent kinases (CDK4/6) are FDA-approved and undergoing clinical testing for multiple solid tumors. It was investigated whether inhibiting the KCNK9 K^+ channel with huKCNK9 mAb sensitized cancer cells to these therapeutics. Human LX22 PDX-derived lung carcinoma cells were treated with the PARP inhibitor AZD2461 (100 μM)+/−huKCNK9 mAb (400 μg/ml) or with the CDK4/6 inhibitor palbociclib (0.5 μM)+/−huKCNK9 mAb (400 μg/ml) for 72 hours. Cell viability was then quantified by MTT assay. Statistical comparisons were performed by ANOVA and post-hoc Tukey test.

[5] = system: KCNK9-positive BT549 carcinoma cells; experiment: Cell viability, KCNK9-positive breast cancer cells; type: cell-based, human; settings: BT549, KCNK9-positive (FIG. 5)
[6] = system: LX22 PDX small cell lung cancer cells; experiment: ADCC Reporter Bioassay with luciferase Jurkat effector cells; type: cell-based, human; settings: six hours at 4° C. or 37° C. (FIG. 3)
Method: The capacity of the humanized KCNK9 AF-H5L2 monoclonal antibody to induce ADCC directed against LX22 PDX small cell lung cancer cells also was evaluated. ADCC assays were performed using the ADCC Reporter Bioassay Complete Kit (Promega #G7015). Human lung CA KCNK9+LX22 cells or CD20+ Raji cells (as positive control) were plated at 50,000 cells per well. On the following day, humanized afucosyl anti-KCNK9 (hu-AF-H5), hu-anti-CD20, or non-immune huIgG1 (as negative control) was added. 30 minutes later, FcγIIIa+ Jurkat effector cells expressing the vNFAT-luciferase ADCC reporter were added (300,000 cells/well). Cell mixtures were incubated for six hours at either 4° C. or 37° C. Cells were collected, solubilized, and luciferase activity was quantified as a biomarker of Jurkat cell activation.

T1 sequence (Q9NPC2 whole entry): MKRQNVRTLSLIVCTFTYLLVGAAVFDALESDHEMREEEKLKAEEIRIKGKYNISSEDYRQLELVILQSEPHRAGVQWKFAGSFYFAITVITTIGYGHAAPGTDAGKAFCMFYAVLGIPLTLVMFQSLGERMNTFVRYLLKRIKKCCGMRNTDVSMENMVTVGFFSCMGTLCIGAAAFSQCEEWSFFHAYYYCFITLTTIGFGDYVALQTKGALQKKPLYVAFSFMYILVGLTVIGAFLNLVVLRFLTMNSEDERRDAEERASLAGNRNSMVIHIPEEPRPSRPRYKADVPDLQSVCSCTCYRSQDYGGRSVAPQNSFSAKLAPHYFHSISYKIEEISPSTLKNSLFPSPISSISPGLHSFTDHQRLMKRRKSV

EC50 of binding to KCNK9-expressing HEK293 cells (human KCNK9; flow cytometry, 30 minutes incubation, anti-human Fc FITC secondary): about 0.3 μg/mL
B1: chimeric KCNK9 antibody: Murine anti-KCNK9 variable regions (SEQ ID NO: 1 and 2) fused with human antibody IgG1 constant regions (antibody, V domains shown)
VH: EVQLQQSGPELVKPGASVKTSCKASGYSFTGYYMYWVKQSPEKSLEWIGEINPSSGGTTYNQKFKAKATLTVDKSSSTAYMQLKSLTFEDSAVYYCARSGLRRRFYAMDYWGQGTSVTVSS
VL: DIVLTQSPASLAVSLGQRATVSCRASESVDSFGTTFMHWYQQKPGQPPKLLIYRASNLESGIPARFSGSGSRTDFTLTINPVEADDVATYYCQQSNKDPPTFGGGSKLEIK
modifications: human IgG1 constant regions lack entries; Mus

B2: H4L3: Humanized KCNK9 IgG1 antibody clone, VH SEQ ID NO: 12 and VL SEQ ID NO: 16 (antibody, V domains shown)
VH: QVQLVQSGAEVKKPGASVKVSCKASGYSFTGYYMYWVRQAPGQRLEWMGEINPSSGGTTYNQKFKARVTLTVDKSASTAYMELSSLRSEDTAVYYCARSGLRRRFYAMDYWGQGTLVTVSS
VL: EIVLTQSPATLSLSPGERATLSCRASESVDSFGTTFMHWYQQKPGQPPRLLIYRASNLESGIPARFSGSGSRTDFTLTISSLEPEDFATYYCQQSNKDPPTFGGGTKVEIK
modifications: human IgG1 constant regions
Binding affinity to human KCNK9 relative to parental murine monoclonal antibody (human KCNK9): higher affinity than their parental KCNK9 murine monoclonal antibody

B3: AF-H5L2: Afucosyl version of H5L2 antibody generated using fut8−/− CHO cells (antibody, V domains shown)
VH: QVQLVQSGAEVKKPGASVKVSCKASGYSFTGYYMYWVRQAPGQRLEWIGEINPSSGGTTYNQKFKARATLTVDKSASTAYMELSSLRSEDTAVYYCARSGLRRRFYAMDYWGQGTLVTVSS
VL: EIVLTQSPATLSLSPGERATLSCRASESVDSFGTTFMHWYQQKPGQAPRLLIYRASNLESGIPARFSGSGSRTDFTLTISSLEPEDFAVYYCQQSNKDPPTFGGGTKVEIK
Effect on tumor growth (tumor volume) [1]: significantly attenuated tumor growth | Activity compared between the two clones, cell growth and viability [2]: comparatively more active | Effect on cell growth and viability [2]: inhibited cell growth and viability | Effect on cell viability [3]: without effecting the viability | Effect on cell toxicity induced by PARP inhibition ([4]; 400 μg/ml mAb + AZD2461 100 μM, MTT (FIG. 7A)): substantially augmented | Effect on cell toxicity induced by CDK4/6 inhibition ([4]; 400 μg/ml mAb + palbociclib 0.5 μM, MTT (FIG. 7B)): substantially augmented | Effect on cell viability [5]: inhibited the viability | ADCC induction (luciferase activity of Jurkat effector cells) [6]: induced ADCC that was temperature dependent

B4: H5L2: Humanized KCNK9 IgG1 antibody clone, VH SEQ ID NO: 13 and VL SEQ ID NO: 15 (antibody, V domains shown)
VH: QVQLVQSGAEVKKPGASVKVSCKASGYSFTGYYMYWVRQAPGQRLEWIGEINPSSGGTTYNQKFKARATLTVDKSASTAYMELSSLRSEDTAVYYCARSGLRRRFYAMDYWGQGTLVTVSS
VL: EIVLTQSPATLSLSPGERATLSCRASESVDSFGTTFMHWYQQKPGQAPRLLIYRASNLESGIPARFSGSGSRTDFTLTISSLEPEDFAVYYCQQSNKDPPTFGGGTKVEIK
modifications: human IgG1 constant regions
Binding affinity to human KCNK9 relative to parental murine monoclonal antibody (human KCNK9): higher affinity than their parental KCNK9 murine monoclonal antibody

B5: AF-H4L3: Afucosyl version of H4L3 antibody generated using fut8−/− CHO cells (antibody, V domains shown)
VH: QVQLVQSGAEVKKPGASVKVSCKASGYSFTGYYMYWVRQAPGQRLEWMGEINPSSGGTTYNQKFKARVTLTVDKSASTAYMELSSLRSEDTAVYYCARSGLRRRFYAMDYWGQGTLVTVSS
VL: EIVLTQSPATLSLSPGERATLSCRASESVDSFGTTFMHWYQQKPGQPPRLLIYRASNLESGIPARFSGSGSRTDFTLTISSLEPEDFATYYCQQSNKDPPTFGGGTKVEIK
Effect on tumor growth (tumor volume) [1]: significantly attenuated tumor growth | Effect on cell growth and viability [2]: inhibited cell growth and viability

Reference: patent US12723075B2, “Humanized antibodies directed against KCNK9” (The Johns Hopkins University, priority 2020, dated 2026)
